{"source": "patent US20180305432A1", "binders": {"B1": {"name": "TCR DN4.99 (protein)", "chain 1": "AQTVTQSQPEMSVQEAETVTLSCTYDTSESDYYLFWYKQPPSRQMILVIRQEAYKQQNATENRFSVNFQKAAKSFSLKISDSQLGDAAMYFCAYRSPLNTGTASKLTFGTGTRLQVTL", "chain 2": "DVKVTQSSRYLVKRTGEKVFLECVQDMDHENMFWYRQDPGLGLRLIYFSYDVKMKEKGDIPEGYSVSREKKERFSLILESASTNQTSMYLCASSPWVSSYEQYFGPGTRLTVT"}}, "target": "self-lipid accumulated in leukemia cells peptide on CD1c (human)", "assay": "mLPA titration on K562-CD1c cells; CD69 on transduced Jurkat 76 b2m- cells (FIG. 5B); highest of the three TCRs titrated; full-length, on cells", "settings": "chains Valpha:Vbeta"}
{"binder": "B1", "values": [{"measurement": "EC50 of peptide", "result": 100, "unit": "µg/mL"}]}
